Data published in the DeepSol protein solubility set.

Assay: soluble on expression in E. coli; label from the status in PepcDB or PDB records

Sequence	soluble on expression in E. coli
MVAKISVGSSLFGALSYNQNKVDEEQGKVLLSNRMFESEDGNFSIRRCMECFDMHLPADLKTEKPIIHISLNPHPDDVLSDSQLADIAKEYMDKLGYGNQPYMVYKHEDIARHHIHIVSIRVDDTGKKINDKFEHIRSKQITRELEQKYGLHPAEKKQAADRPELKKVDYRAGDVKHQLSNTVKALASSYRFQSFTEYKALLSIYNVQAEEVKGEVNGKPYNGIVYSATNDKGEKQGNPFKSSSLGKSVGYEAIQRHIKKSTKDIQDKNLKERTRRTVGAVMKSAHSRKELEQELKRKGIDVLFRQNDTGRIYGVTFIDHENRTVLNGSRLGKDFSANVFNDLFSGSRTLSGNSKQETQEQKPEYNPTGHLENTGKAIAGLFSLLSGGNDTPPDNSQVPPPKKKKKKKQRRILEHHHHHH	soluble
MVARIYRPAKTAMQSGKAKTDQWLLEYEPEKPRVVEPLMGYTSSGDMKSQIRLFFASQEEAVAYATRNDIPYRLMEPHEPKRRKVSYSDNFRFDRPQPWTHLEHHHHHH	not soluble
MVCIAAKCGNECSQCKHCHYALEQMSALAQGEKTSGLCPKLETCVFNCLTEDVSKVLSCVATRCNVHCYDGDCPSCKMISRRIFSNICKQHSMTTQPQIKYEGTCPNLFMELADDYVAMKKKKL	not soluble
MVCWSSHTASKQGNLMNQFYVHVRLFEDTAEQTKKFEELMLNFLYQKTVKESDDSCCRLIPEGYILKSTMNCQQILDQTFSIANSAGVDANIFVCKFEQSACLLPSASLVGNDFVHYDLTPKPIKLDS	not soluble
MVDIIIAEHAGFCFGVKRAVKLAEESLKESQGKVYTLGPIIHNPQEVNRLKNLGVFPSQGEEFKEGDTVIIRSHGIPPEKEEALRKKGLKVIDATCPYVKAVHEAVCQLTREGYFVVLVGEKNHPEVIGTLGYLRACNGKGIVVETLEDIGEALKHERVGIVAQTTQNEEFFKEVVGEIALWVKEVKVINTICNATSLRQESVKKLAPEVDVMIIIGGKNSGNTRRLYYISKELNPNTYHIETAEELQPEWFRGVKRVGISAGASTPDWIIEQVKSRIQEICEGQLVSSRSHHHHHH	soluble
MVDLYQLFKTRTPIIGVVHLLPLPTSPRWGGSLKAVIDRAEQEATALASGGVNGIIVENFFDAPFTKNQVDPAVVSAMTVVVQRIQNLVTLPVGLNVLRNDGKSAMAIASCVRAQFIRVNVLTGVMATDQGLIEGEAHELLRYRRELGSDVQILADVLVKHARPLSSPNLTVAVKDTIERGLADAVILSGWATGSPPNQEDLELACDAANGTPVFIGSGASWENIATLLQAANGVIVSSSLKRHGRIEQPIDPIRVSQFVEAAHRSWNSKGESKSVSSITIHSLEHHHHHH	not soluble
MVDREWVLKIAKLARLELKEEEIEVFQKQLSDILDFIDQLKELDTENVEPYIQEFEETPMREDEPHPSLDREKALMNAPERKDGFFVVPRVVEV	soluble
MVEADPRFQEAIRLFNAQEWYAAHDVLEEIWHETADPERRCLQGLLQVAVAQLHLQRDNQRGATILFGEALGRLRRPGTPDLGLDLPALCHCVQGRLVQLQQDGDPESCTVPVLSPSP	not soluble
MVEDTKTQMAAAISATLVFAARRRPLFCSLSSSSSSKPNTRKLVLYSKPGCCLCDGLKEKLHAAFTLSTGPDSLNDVTLQVRDITTNPEWERAYQYEIPVLAKENSDGKEEVLPRLSPRLSAELIQKKLLAAFS	not soluble
MVEKELEEKVYKSIIKTIKDTPLEEFYTSGHRTCQGCESALVMRFLAKAAGPRTIVIGATGCMYVANTTYYTTSWIVPWVHTQLGGTGAAALGTAAALRALMRKGKIKQEPINVIAFCGDLGCADMGLSGVSNAMTYDYNLLIILYDNESSANTDIQETSMTPFGAQTSFSRPGKQRRIMKKRWKKSVVPMIIAGHRNVRYAATMTPAYPLDSMNKIRKALTIGGPTFIHSLDPCPKGWDYDPKFSHELGVLAVETGLWPLYEYIDGEIVYNEPTKSIVEGRMKRKPVKEYLEKQGRFSHFTEEDIEYVQRMVDEMYEEWEIPGVMPIKSINAKISDK	not soluble
MVETPPAWVLLKRARERIYTLPPDFPGFRARLGLCLDGVWYVGAVEAEGFAPKTLGLFGEAGAIAEKELGSLLGHRRPAPFEEGEGRYPMRLFAEGPLGTGIALEDPFRSRIWVKEGRLALIERHLPEGSFRIHLETWREVGERLLPHRFLLVHRDPRGHLLKVERFRDEYAQVGPYWLPVEREVVVEGEGLGVLVLRLEEVEVKG	soluble
MVFTPLDVRTIVSLPSCPKCNSEYTYEDGSLLICPECAHEWSADAGSADASDDVKVIKDSTGNVLQDGDTITVIKDLKVKGSSLVVKVGTKVKNIRLVDGDHDIDCKIDGIGAMKLKSEFVRKV	not soluble
MVFYLIGLGLGDVEDITVKGLNIVKNCARVHLEAYTSILCYGLDKTNLEKFYGREIIEADRTVVEQESDAILNGADKEDVALLVVGDPFGATTHADLVLRAKQQNIPVKVIHNASIMNAVGCCGLQLYNFGETVSIVMWTDEWQPESYYDKIALNRKRGMHTLCLLDIKTKEQTVENMMRGRKIFEPARYQKCSEAARQLLTIYERRKAKGEECAYDENTMVVGLARVGWDNQKIVYASMKDMSEMEMGEPLHSLIIPGETHPLEVDMLETFRP	not soluble
MVGGEDMAKKKAPSAKEGEKQQGFKEIIPEVTEKLVEQARKEVARERWVTPHKLAQKMGVKVSIARRVLRILEEEGVLVLFTRNRRSPLYLEHHHHHH	not soluble
MVGRVAQGKEPLHPGPRRQPGGARPGADLGPGGGVNPSPRKRVALFTDGACLGNPGPGGWAALLRFHAHEKLLSGGEACTTNNRMELKAAIEGLKALKEPCEVDLYTDSHYLKKAFTEGWLEGWRKRGWRTAEGKPVKNRDLWEALLLAMAPHRVRFHFVKGHTGHPENERVDREARRQAQSQAKTPCPPRAPTLFHEEA	soluble
MVGYSSKLIFVSMITRHGDRAPFANIENANYSWGTELSELTPIGMNQEYNLGLQLRKRYIDKFGLLPEHYVDQSIYVLSSHTNRTVVSAQSLLMGLYPAGTGPLIGDGDPAIKDRFQPIPIMTLSADSRLIQFPYEQYLAVLKKYVYNSPEWQNKTKEAAPNFAKWQQILGNRISGLNDVITVGDVLIVAQAHGKPLPKGLSQEDADQIIALTDWGLAQQFKSQKVSYIMGGKLTNRMIEDLNNAVNGKSKYKMTYYSGHALTLLEVMGTLGVPLDTAPGYASNLEMELYKDGDIYTVKLRYNGKYVKLPIMDKNNSCSLDALNKYMQSINEKFQKHHHHHH	soluble
MVHYKLTYFLSRGLGDVSRQLFHLADVDFEDERLEKPHFLEKKETYPFKQVPVLSVDGFQIPQSMAIARYLAKKFGFAGKTAEESAMVDAFVDQFKDFYSEIRDYYYTMLGLGLTDLDGDEQKDKVLIPARDKFLPLLTRYLEKSKSGFLVDGGLTFADLIILDNMTSLLNWWPEYANDYPVILAWRDKVMNYPRLKEYIEKRPVTMY	not soluble
MVIRYDKAFIKDFKETDEGYLTITACPITRPGVFPYRRTDGGLSMEAKLPDELFSKATVLSANAKPMTDDHPTEPVTAANYNKYSKGMTHNDAHVLDNKLLVSFTITDAETIKKINDGKRELSIGFQADVSKETGVYNGMQYDSVQRNMQINHIAIVDEGRAGPEVAIRGDSVAFMIDTKDKQTGGNGMSKLIIDSKEFEVDSIVKAKFESLEAKLDAAEQRKANVEKLEGERDALKAQIDKLNKEIDEAKKKEVTADALDKRVQDRVDLINKAQKFLGDSVDFTGKSDREIKESVIAKTSPDFKGDGKSDDYIAAYFDSAVANVEKKGFTNPAAFNDAKDKDKEAAEDIEKQKNNRLNMNKKEDK	not soluble
MVKAEFGLYSATGGRVLVWLEQIHVQPLELLSTDERIRRQSIGVTILWNNILVMIQCDGNILPQKHQGFYRFHCEFQQRSLHTAEHLMSFMDEGS	not soluble
MVKLRIGYPEDPDYQERLEEFEARIARGEKIEPGDWMPAEYRRQLIRMISQHAHSEWVGMLPEGAWITRAPSLRRKLILLAKVQDEAGHGQYLYHAAETLGITREEMVEALLSGKAKYSNIFNYPTLTWADVAIIGWLVDGMAIKNQTMLAQCSYGPYSRAMVRICAEETFHHKQGKEAVLLYAKGSPKQRRMVQDALNRWWWPTLMMAGPHDTDSPHTPLLLRWGIKTKTNDQIRQEFLNEHVPELLDAGLSIPDPDLRYDEKTGNWIHGPIPWDEFWKVIGGEGPMNRHRLQGRRRAHQEGRWVREAMEAYAKRRLAQAAD	soluble
MVKTMKCKFCDKKSYIKLKSPKMYLCKEHFVEYFENKVKKSIDKYKMLSKDEKILVAVSGGKDGHAAAWVLKKLGYNIELFHINLGIEGFSEESLKAVKELAEKLEVPLHVVNLKDITGKTMEDIRGKKCSICGTTKRYLMNKFGYENGFDVIVTGHNLDDEVSFILNNLFNWNIRYLAKHEPVLPAHDKFLKKVKIFFEIEEELILKYAEAEEIPYTTVECKYAERAITLKHRAYLNELEKERPGIKYQFLSGYMKNRHLFKVEEEDFQFRECEVCGMTSAGKICSFCRVWKLYKKKKENRN	soluble
MVLADGELTVLGRIRSASNATFLCESTLGLRSLHCVYKPVSGERPLWDFPDGTLAGRELSAYLVSTQLGWNLVPHTIIRDGPAGIGMLQLWVQQPGDAVDSDPLPGPDLVDLFPAHRPRPGYLPVLRAYDYAGDEVVLMHADDIRLRRMAVFDVLINNADRKGGHILCGIDGQVYGVDHGLCLHVENKLRTVLWGWAGKPIDDQILQAVAGLADALGGPLAEALAGRIAAAEIGALRRRAQSLLDQPVMPGPNGHRPIPWPAFLEHHHHHH	not soluble
MVLRDKMILLDENTKAIVQGITGRQGSFHTKKMLECGTKIVGGVTPGKGGQNVHGVPVFDTVKEAVKETDANASVIFVPAPFAKDAVFEAIDAGIELIVVITEHIPVHDTMEFVNYAEDVGVKIIGPNTPGIASPKVGKLGIIPMEVLKEGSVGMVSRSGTLTYEIAHQIKKAGFGVSTCVGIGGDPIVGLRYKEVLDLFEKDDETEAIVMIGEIGGGAEEEAAKFIEKMKKPVIGYIAGQSAPEGKRMGHAGAIVEKGKGTAESKMKALEEAGAYVAKNISDIPKLLAGILGK	soluble
MVMNRSSPHGGGVAAGDGGGRPLRPGHFPLRPLRGHLPPGGRIFALALAVALPVQAETLASRAPETVAITLYRDGDGPFQAMSPWVRQQARDKGLVLVTETRTVDLPAGRHTLRFDGVAEGLIPQSAAVEGLPGKAVERNYDYALLSPGTLVERSLGQPIKVVRTNRKTGRQQTVDATLIQGPYGLMVRTAEGVEALGCSGGAERLVLGAVPEGLTDKPSLSTIVEVPAPTRAKLTVSYLALGVNWQADYVARIHPDGQRLDLTGWLTLVNSGGSQFADAKTQAVAGKLSRKPVRVDKGEARSIHRACWPMDTTHYGQEPPPPPAPPPPLPIPMMSAAPMARAGAEEIAVTGARAKLAEQSNLGDYKLYTLPEPVTLNARQTKQVAFLDQKDVAFQRLYAVEMDSYDDYDNADWPLIIPDVVLRLENKTANGLGKPLPSGALSAIETAGGRPTFAGEQAVRDVAVGEPLDLVIGRAMDVHARPRLVEERTLSKGRVRRTYELDLANAKTVPITVEIRHDPTAPYFKLVSEPQKHDIRQGQVAWRVTLPAGERRSFRYAVAFGR	not soluble
